The record followed here is patent publication US20070025968A1, “Methods for selecting and producing T cell peptide epitopes and vaccines incorporating said selected epitopes” (priority 1996, published 2007).

The target of the assay is other cell components, including other HLA class I alleles, of the B-LCL lines.

Regarding “FL-labeled HLA-A*0301 reference peptide KVFPC(FL)ALINK”, the relative peptide-binding percentage was below 20%.
